T1: Sso7c4 (Saccharolobus (Sulfolobus) solfataricus …, UniProt P81552 2-56)
T1 sequence: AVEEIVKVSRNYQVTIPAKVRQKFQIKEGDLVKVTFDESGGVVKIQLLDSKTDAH

B1: 8-mer duplex (SPR, biotinylated) (dsDNA)
DNA 1: CGCTATAGCG
DNA 2: CGCTATAGCG
B2: 16-mer duplex (SPR, biotinylated) (dsDNA)
DNA 1: CGCGTACGCGTACGCG
DNA 2: CGCGTACGCGTACGCG
B3: 16-mer duplex (NMR) (dsDNA)
DNA 1: CGCGTACGCGTACGCGTA
DNA 2: TACGCGTACGCGTACGCG
B4: 12-mer duplex (dsDNA)
DNA 1: CAATCCGGATTG
DNA 2: CAATCCGGATTG

Experiments:
Sso7c4 [1] = target: T1, Sso7c4; assay: SPR
Sso7c4 [2] = target: T1, Sso7c4; assay: NMR 1H-15N HSQC titration
Sso7c4 [3] = target: T1, Sso7c4; assay: NMR 1D 1H titration of DNA

Row | Binder | Kd (Sso7c4 [1]) [µM] | also measured
1 | B1 | 10.1 | –
2 | B2 | 1.54 | –
3 | B3 | – | binding result (Sso7c4 [2]): binds
4 | B4 | – | binding result (Sso7c4 [3]): binds
